Experimental data as given in patent US20140087995A1 (published 2014).
Numbered stars: 1 amine (or outer) side, 2 acyl side, 3 side chain; on linkers, the order of the positions; unused ones are H or OH. Bridge positions count the residues as written; N and C are the ends. Side chains are listed from the residue outwards. Ends that are not written are not given here. * marks the point of attachment. C20 diacid = O=C(O)CCCCCCCCCCCCCCCCCCC(=O)*; γGlu = O=C(O)[C@H](CCC(=O)[*:2])N[*:1]; AEEA = NCCOCCOCC(=O)O

T1: human amylin 3(a) receptor (human calcitonin receptor co-expressed with RAMP-3) (human, UniProt P30988 25-474; O60896 24-148, limits assumed)
T1 sequence (looked up) 1: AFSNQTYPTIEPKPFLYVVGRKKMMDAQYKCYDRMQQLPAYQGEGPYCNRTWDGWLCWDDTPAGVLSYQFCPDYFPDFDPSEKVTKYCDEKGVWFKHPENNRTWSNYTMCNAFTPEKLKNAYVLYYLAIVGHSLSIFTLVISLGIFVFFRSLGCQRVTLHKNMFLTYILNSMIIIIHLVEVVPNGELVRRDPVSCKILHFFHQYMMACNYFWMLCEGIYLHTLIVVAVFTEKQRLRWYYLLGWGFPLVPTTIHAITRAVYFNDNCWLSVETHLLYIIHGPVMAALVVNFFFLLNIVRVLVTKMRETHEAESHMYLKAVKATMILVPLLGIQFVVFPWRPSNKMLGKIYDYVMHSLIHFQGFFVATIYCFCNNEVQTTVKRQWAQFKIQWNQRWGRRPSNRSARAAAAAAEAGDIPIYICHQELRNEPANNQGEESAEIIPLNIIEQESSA
T1 sequence (looked up) 2: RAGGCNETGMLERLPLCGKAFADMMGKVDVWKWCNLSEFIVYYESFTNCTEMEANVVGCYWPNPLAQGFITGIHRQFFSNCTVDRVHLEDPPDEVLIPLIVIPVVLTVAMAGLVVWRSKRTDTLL

B1: N^ε1-[2-[2-[2-[[(4S)-4-carboxy-4-(19-carboxynonadecanoylamino)butanoyl]amino]ethoxy]ethoxy]acetyl]-[Arg17,Pro21,Pro27,Arg34]-h-amylin (peptide)
peptide: K([AEEA-γGlu-C20 diacid])CNTATCATQRLANFLRHSSPNFGAIPSSTNVGRNTY-NH2
modifications: disulfide 2-7; N-terminus assumed
SMILES: CC[C@H](C)[C@H](NC(=O)[C@H](C)NC(=O)CNC(=O)[C@H](Cc1ccccc1)NC(=O)[C@H](CC(N)=O)NC(=O)[C@@H]1CCCN1C(=O)[C@H](CO)NC(=O)[C@H](CO)NC(=O)[C@H](Cc1c[nH]cn1)NC(=O)[C@H](CCCNC(=N)N)NC(=O)[C@H](CC(C)C)NC(=O)[C@H](Cc1ccccc1)NC(=O)[C@H](CC(N)=O)NC(=O)[C@H](C)NC(=O)[C@H](CC(C)C)NC(=O)[C@H](CCCNC(=N)N)NC(=O)[C@H](CCC(N)=O)NC(=O)[C@@H](NC(=O)[C@H](C)NC(=O)[C@@H]1CSSC[C@H](NC(=O)[C@@H](N)CCCCNC(=O)COCCOCCNC(=O)CC[C@H](NC(=O)CCCCCCCCCCCCCCCCCCC(=O)O)C(=O)O)C(=O)N[C@@H](CC(N)=O)C(=O)N[C@@H]([C@@H](C)O)C(=O)N[C@@H](C)C(=O)N[C@@H]([C@@H](C)O)C(=O)N1)[C@@H](C)O)C(=O)N1CCC[C@H]1C(=O)N[C@@H](CO)C(=O)N[C@@H](CO)C(=O)N[C@H](C(=O)N[C@@H](CC(N)=O)C(=O)N[C@H](C(=O)NCC(=O)N[C@@H](CCCNC(=N)N)C(=O)N[C@@H](CC(N)=O)C(=O)N[C@H](C(=O)N[C@@H](Cc1ccc(O)cc1)C(N)=O)[C@@H](C)O)C(C)C)[C@@H](C)O
notes: also called compound 78
B2: N^ε1-[2-[2-[2-[[(4S)-4-carboxy-4-(19-carboxynonadecanoylamino)butanoyl]amino]ethoxy]ethoxy]acetyl]-[Arg17,Pro21,Pro27,Glu35]-h-amylin (peptide)
peptide: K([AEEA-γGlu-C20 diacid])CNTATCATQRLANFLRHSSPNFGAIPSSTNVGSETY-NH2
modifications: disulfide 2-7; N-terminus assumed
SMILES: CC[C@H](C)[C@H](NC(=O)[C@H](C)NC(=O)CNC(=O)[C@H](Cc1ccccc1)NC(=O)[C@H](CC(N)=O)NC(=O)[C@@H]1CCCN1C(=O)[C@H](CO)NC(=O)[C@H](CO)NC(=O)[C@H](Cc1c[nH]cn1)NC(=O)[C@H](CCCNC(=N)N)NC(=O)[C@H](CC(C)C)NC(=O)[C@H](Cc1ccccc1)NC(=O)[C@H](CC(N)=O)NC(=O)[C@H](C)NC(=O)[C@H](CC(C)C)NC(=O)[C@H](CCCNC(=N)N)NC(=O)[C@H](CCC(N)=O)NC(=O)[C@@H](NC(=O)[C@H](C)NC(=O)[C@@H]1CSSC[C@H](NC(=O)[C@@H](N)CCCCNC(=O)COCCOCCNC(=O)CC[C@H](NC(=O)CCCCCCCCCCCCCCCCCCC(=O)O)C(=O)O)C(=O)N[C@@H](CC(N)=O)C(=O)N[C@@H]([C@@H](C)O)C(=O)N[C@@H](C)C(=O)N[C@@H]([C@@H](C)O)C(=O)N1)[C@@H](C)O)C(=O)N1CCC[C@H]1C(=O)N[C@@H](CO)C(=O)N[C@@H](CO)C(=O)N[C@H](C(=O)N[C@@H](CC(N)=O)C(=O)N[C@H](C(=O)NCC(=O)N[C@@H](CO)C(=O)N[C@@H](CCC(=O)O)C(=O)N[C@H](C(=O)N[C@@H](Cc1ccc(O)cc1)C(N)=O)[C@@H](C)O)C(C)C)[C@@H](C)O
notes: also called compound 26
B3: N^ε1-[2-[2-[2-[[(4S)-4-carboxy-4-(19-carboxynonadecanoylamino)butanoyl]amino]ethoxy]ethoxy]acetyl]-[Arg17,Pro21,Pro27,His34]-h-amylin (peptide)
peptide: K([AEEA-γGlu-C20 diacid])CNTATCATQRLANFLRHSSPNFGAIPSSTNVGHNTY-NH2
modifications: disulfide 2-7; N-terminus assumed
SMILES: CC[C@H](C)[C@H](NC(=O)[C@H](C)NC(=O)CNC(=O)[C@H](Cc1ccccc1)NC(=O)[C@H](CC(N)=O)NC(=O)[C@@H]1CCCN1C(=O)[C@H](CO)NC(=O)[C@H](CO)NC(=O)[C@H](Cc1c[nH]cn1)NC(=O)[C@H](CCCNC(=N)N)NC(=O)[C@H](CC(C)C)NC(=O)[C@H](Cc1ccccc1)NC(=O)[C@H](CC(N)=O)NC(=O)[C@H](C)NC(=O)[C@H](CC(C)C)NC(=O)[C@H](CCCNC(=N)N)NC(=O)[C@H](CCC(N)=O)NC(=O)[C@@H](NC(=O)[C@H](C)NC(=O)[C@@H]1CSSC[C@H](NC(=O)[C@@H](N)CCCCNC(=O)COCCOCCNC(=O)CC[C@H](NC(=O)CCCCCCCCCCCCCCCCCCC(=O)O)C(=O)O)C(=O)N[C@@H](CC(N)=O)C(=O)N[C@@H]([C@@H](C)O)C(=O)N[C@@H](C)C(=O)N[C@@H]([C@@H](C)O)C(=O)N1)[C@@H](C)O)C(=O)N1CCC[C@H]1C(=O)N[C@@H](CO)C(=O)N[C@@H](CO)C(=O)N[C@H](C(=O)N[C@@H](CC(N)=O)C(=O)N[C@H](C(=O)NCC(=O)N[C@@H](Cc1c[nH]cn1)C(=O)N[C@@H](CC(N)=O)C(=O)N[C@H](C(=O)N[C@@H](Cc1ccc(O)cc1)C(N)=O)[C@@H](C)O)C(C)C)[C@@H](C)O
notes: also called compound 76
B4: N^ε1-[2-[2-[2-[[(4S)-4-carboxy-4-(19-carboxynonadecanoylamino)butanoyl]amino]ethoxy]ethoxy]acetyl]-[Arg17,Pro21,Pro27,Pro28,Pro34]-h-amylin (peptide)
peptide: K([AEEA-γGlu-C20 diacid])CNTATCATQRLANFLRHSSPNFGAIPPSTNVGPNTY-NH2
modifications: disulfide 2-7; N-terminus assumed
SMILES: CC[C@H](C)[C@H](NC(=O)[C@H](C)NC(=O)CNC(=O)[C@H](Cc1ccccc1)NC(=O)[C@H](CC(N)=O)NC(=O)[C@@H]1CCCN1C(=O)[C@H](CO)NC(=O)[C@H](CO)NC(=O)[C@H](Cc1c[nH]cn1)NC(=O)[C@H](CCCNC(=N)N)NC(=O)[C@H](CC(C)C)NC(=O)[C@H](Cc1ccccc1)NC(=O)[C@H](CC(N)=O)NC(=O)[C@H](C)NC(=O)[C@H](CC(C)C)NC(=O)[C@H](CCCNC(=N)N)NC(=O)[C@H](CCC(N)=O)NC(=O)[C@@H](NC(=O)[C@H](C)NC(=O)[C@@H]1CSSC[C@H](NC(=O)[C@@H](N)CCCCNC(=O)COCCOCCNC(=O)CC[C@H](NC(=O)CCCCCCCCCCCCCCCCCCC(=O)O)C(=O)O)C(=O)N[C@@H](CC(N)=O)C(=O)N[C@@H]([C@@H](C)O)C(=O)N[C@@H](C)C(=O)N[C@@H]([C@@H](C)O)C(=O)N1)[C@@H](C)O)C(=O)N1CCC[C@H]1C(=O)N1CCC[C@H]1C(=O)N[C@@H](CO)C(=O)N[C@H](C(=O)N[C@@H](CC(N)=O)C(=O)N[C@H](C(=O)NCC(=O)N1CCC[C@H]1C(=O)N[C@@H](CC(N)=O)C(=O)N[C@H](C(=O)N[C@@H](Cc1ccc(O)cc1)C(N)=O)[C@@H](C)O)C(C)C)[C@@H](C)O
notes: also called compound 55
B5: N^ε1-[2-[2-[2-[[(4S)-4-carboxy-4-(19-carboxynonadecanoylamino)butanoyl]amino]ethoxy]ethoxy]acetyl]-[Arg17,Pro21,Pro27,Pro31,His35]-h-amylin (peptide)
peptide: K([AEEA-γGlu-C20 diacid])CNTATCATQRLANFLRHSSPNFGAIPSSTPVGSHTY-NH2
modifications: disulfide 2-7; N-terminus assumed
SMILES: CC[C@H](C)[C@H](NC(=O)[C@H](C)NC(=O)CNC(=O)[C@H](Cc1ccccc1)NC(=O)[C@H](CC(N)=O)NC(=O)[C@@H]1CCCN1C(=O)[C@H](CO)NC(=O)[C@H](CO)NC(=O)[C@H](Cc1c[nH]cn1)NC(=O)[C@H](CCCNC(=N)N)NC(=O)[C@H](CC(C)C)NC(=O)[C@H](Cc1ccccc1)NC(=O)[C@H](CC(N)=O)NC(=O)[C@H](C)NC(=O)[C@H](CC(C)C)NC(=O)[C@H](CCCNC(=N)N)NC(=O)[C@H](CCC(N)=O)NC(=O)[C@@H](NC(=O)[C@H](C)NC(=O)[C@@H]1CSSC[C@H](NC(=O)[C@@H](N)CCCCNC(=O)COCCOCCNC(=O)CC[C@H](NC(=O)CCCCCCCCCCCCCCCCCCC(=O)O)C(=O)O)C(=O)N[C@@H](CC(N)=O)C(=O)N[C@@H]([C@@H](C)O)C(=O)N[C@@H](C)C(=O)N[C@@H]([C@@H](C)O)C(=O)N1)[C@@H](C)O)C(=O)N1CCC[C@H]1C(=O)N[C@@H](CO)C(=O)N[C@@H](CO)C(=O)N[C@H](C(=O)N1CCC[C@H]1C(=O)N[C@H](C(=O)NCC(=O)N[C@@H](CO)C(=O)N[C@@H](Cc1c[nH]cn1)C(=O)N[C@H](C(=O)N[C@@H](Cc1ccc(O)cc1)C(N)=O)[C@@H](C)O)C(C)C)[C@@H](C)O
notes: also called compound 57

biological target: T1, human amylin 3(a) receptor (human …); assay: cell-based or functional assay

| Binder | Ratio hCT/hAmylin funct. (hCTR EC50 over hAmylin-R EC50) | hAmylin-R funct. EC50 (pM) |
| --- | --- | --- |
| B1 | 25.8 | 316 |
| B2 | 29.9 | 212 |
| B3 | 24.8 | 297 |
| B4 | 10.8 | 68 |
| B5 | 35 | 89 |
